Measurements from paper PMC4070910, “Cathepsin S Signals via PAR2 and Generates a Novel Tethered Ligand Receptor Agonist” (PLoS ONE, 2014).

Legend:
human PAR2 [1] = assay: Fura-2 calcium imaging in HeLa cells transfected with PAR2 cDNA; format: cell-based
Experimental: Human PAR2 cDNA was cloned as an Xho I-Hind III fragment (1206 bp) into pcDNA3.1(−). 10 µg of DNA were diluted into 0.5 ml of DMEM and mixed with 0.5 ml of DMEM containing 10 µl of Lipofectamine 2000 transfection reagent and incubated at room temperature for 20 minutes. HeLa cells were grown to confluence, trypsinized and 1×10^6 cells were pelleted in a 15 ml tube by centrifugation at 1000 rpm for 5 minutes. The DMEM-Lipofectamine 2000-DNA mixture (1 ml) was added to the cell pellet, resuspended gently and incubated at room temperature for 20 minutes. Four ml of complete DMEM with 10% FBS were added to the tube, mixed by inverting the tube several times, plated into a 96-well glass bottom plate at 20,000 cells/well, and placed in a 37°C CO2 incubator. HeLa cells transfected with vector alone or salmon sperm DNA (shown in the figures) were plated as a control. The medium was aspirated two days after transfection. Fura-2 was used as a ratiometric calcium-sensitive indicator as follows. 100 µl of complete DMEM containing 2 µM of Fura-2 were added to each well and left at room temperature in the dark for 1 hr. Following loading with Fura-2, the medium was aspirated and replaced with 90 µl of HEPES-buffered saline (20 mM HEPES, 115 mM NaCl, 5.4 mM KCl, 2 mM CaCl2, 0.8 mM MgCl2, 13.8 mM glucose, pH 7.4).
Imaging was performed using a Zeiss Axiovert 200 M microscope platform equipped with a flipping filter wheel for ratiometric imaging. Axiovision software, version 4.6 was used for image analysis of the cells which were excited at 340 nm and 380 nm. Ten µl of peptide agonist were added at 20 seconds after the start of the excitation procedure. Images were taken every 5 seconds, including at zero time, during a 3-minute period or longer if required. The software later analyzed all images taken during each excitation period. Typically, ratiometric changes were measured in 10–20 cells in each image. An average of the fluorescence of the cells in each image was calculated and plotted against time in seconds.
HeLa cells transfected with PAR2 cDNA were subjected to ratiometric imaging as described above with PAR2 peptides, SLIGRL, KVDGTS, and SLIGKVDGTS in addition to the reverse peptides LRGILS and STGDVK at concentrations from 1 nM - 1 mM. Each of the concentration-dependent readings was performed in triplicate. Maximum intensities at each of the dilutions were calculated and plotted against concentration using GraphPad/PRISM software version 6.0 (Irvine, CA). Error bars represent +/−SEM.

[2] = tested on: luciferase-PAR2 and PAR2 mutants; assay: Western blot for Gaussia luciferase in supernatants; format: cell-based, human; settings: luciferase-PAR2, PAR2M1, PAR2M2, PAR2M3; cathepsin S 2 µM
Experimental: HeLa cells were transfected and treated with cathepsin S as described for the luciferase assay. After treatment with cathepsin S, cells were pelleted at 14,000 rpm for 3 minutes. Supernatants (100 µl) were collected and denatured with 1 µl of 10% SDS. Equal volumes of supernatants were prepared in loading buffer, heated at 90°C for 5 minutes, run on NuPAGE Novex Bis-Tris mini gels and transferred to nitrocellulose membranes using standard protocols. The blot was probed with a primary rabbit anti-Gaussia luciferase antibody. HRP-conjugated donkey anti-rabbit antibody was used to identify the relevant bands on the membrane.

human PAR2 [3] = assay: IP1 (IP-One HTRF) assay in PAR2-transfected HeLa cells; format: cell-based; settings: 1 hour, 37°C, KVDGTS 100 µM, SLIGRL 10 µM, cathepsin S 1 µM
Experimental: To determine the effect of PAR2 activation on Gq stimulation, we measured IP1, a downstream metabolite of IP3, using the IP-One HTRF assay from Cis Bio, Medford, MA. HeLa cells were transfected with salmon sperm DNA or PAR2 cDNA as described above, plated in 10 cm culture dishes and incubated at 37°C with 5% CO2. After 24 hours, the cells were trypsinized, counted, plated into 96-well plates at 80,000 cells/well and incubated for another 24 hours. The medium was replaced with a stimulation buffer containing LiCl, per the instructions of the manufacturer. Ligands, including cathepsin S (1 µM), KVDGTS (100 µM) and SLIGRL (10 µM) were added to wells and incubated at 37°C for 1 hour and IP1 levels determined. This assay was performed on multiple wells containing each ligand on three occasions. Error bars represent SEM.

B1: cathepsin S: Recombinant human cathepsin S, cysteine protease, expressed in E.coli, refolded and activated (protein, UniProt P25774 115-331, looked up)
Cathepsin S: LPDSVDWREKGCVTEVKYQGSCGACWAFSAVGALEAQLKLKTGKLVSLSAQNLVDCSTEKYGNKGCNGGFMTTAFQYIIDNKGIDSDASYPYKAMDQKCQYDSKYRAATCSKYTELPYGREDVLKEAVANKGPVSVGVDARHPSFFLYRSGVYYEPSCTQNVNHGVLVVGYGDLNGKEYWLVKNSWGHNFGEEGYIRMARNKGNHCGIASFPSYPEI
effect as first agent on calcium response to second agent (in words) (human PAR2 [1]; PAR2-transfected HeLa, KVDGTS 100 µM, cathepsin S 2 µM, papain 2 µM, trypsin 10 nM, second agent after up to 60 minutes, room temperature): failed to induce a calcium response at any time up to 60 minutes
calcium response to the substance as second agent after KVDGTS (in words) (human PAR2 [1]; PAR2-transfected HeLa, second agent after 2, 3, 5, 10, 30 and 60 minutes (cathepsin S), papain 2 µM, trypsin 10 nM, room temperature): present but reduced
calcium response (in words) (human PAR2 [1]; single-cell imaging, KVDGTS 100 µM, SLIGRL 10 µM, IGKVDG 100 µM, cathepsin S 2 µM, room temperature): able to stimulate native PAR2 and PAR2M1
concentration at which active/effective (human PAR2 [1]; summary of these studies (discussion)): 1 to 2 µM
receptor cleavage, anti-luciferase western blot (in words) [2]: confirmed the results of the luminescence assay
IP1 level (human PAR2 [3]; KVDGTS and SLIGRL after subtracting baseline values, cathepsin S 'in this particular experiment'): 122 nM
IP1 generation (in words) (human PAR2 [3]; three occasions): consistently generated higher levels of IP1 than either SLIGRL or KVDGTS
